# Measurements as given in US20200224186A1 (University of Washington, published 2020).
# Numbering of substitutions follows the chain as printed. Names and notes keep the numbering of the source.
# B1: Myr-I3-01-myc-p6 (designed binder)
# chain: MGARASGSKSGSGSDSGSKMEELFKKHKIVAVLRANSVEEAKKKALAVFLGGVHLIEITFTVPDADTVIKELSFLKEMGAIIGAGTVTSVEQCRKAVESGAEFIVSPHLDEEISQFCKEKGVFYMPGVMTPTELVKAMKLGHTILKLFPGEVVGPQFVKAMKGPFPNVKFVPTGGVNLDNVCEWFKAGVLAVGVGSALVKGTPVEVAEKAKAFVEKIRGCTEQKLISEEDLQSRPEPTAPPEESFRSGVETTTPPQKQEPIDKELYPLTSLRSLFGNDPSSQ
# modifications: N-terminal myristoylation motif (6 N-terminal amino acids of HIV Gag); not myristoylated when produced in E. coli
# notes: Forms icosahedral assemblies like I3-01; also called Myr-I3-01-p6
# B2: EPN-01 (designed binder)
# chain: B1 chain with M20I
# modifications: N-terminal myristoylation motif (6 N-terminal amino acids of HIV Gag)
# notes: Every subunit bears the M domain; also called Myr1-12GS-I3-01(M3I)-myc-Late1
# How the values were obtained:
# [1] = biological target: the molecule itself; test: size exclusion chromatography and negative stain EM, self-assembly
# [2] = biological target: the molecule itself; test: electron cryo-tomography of released vesicles, self-assembly
Protein,binding result [1],binding result [2]
B1,binds,–
B2,–,binds
